# Assay results: patent publication US20210079089A1 (SURROZEN OPERATING, published 2021)
# T1: LRP6e1e2 (UniProt O75581 20-630, limits assumed, C-terminally biotinylated)
# T1 construct: domain: E1E2; also called LRP6 E1E2 domains
# T1 sequence (looked up): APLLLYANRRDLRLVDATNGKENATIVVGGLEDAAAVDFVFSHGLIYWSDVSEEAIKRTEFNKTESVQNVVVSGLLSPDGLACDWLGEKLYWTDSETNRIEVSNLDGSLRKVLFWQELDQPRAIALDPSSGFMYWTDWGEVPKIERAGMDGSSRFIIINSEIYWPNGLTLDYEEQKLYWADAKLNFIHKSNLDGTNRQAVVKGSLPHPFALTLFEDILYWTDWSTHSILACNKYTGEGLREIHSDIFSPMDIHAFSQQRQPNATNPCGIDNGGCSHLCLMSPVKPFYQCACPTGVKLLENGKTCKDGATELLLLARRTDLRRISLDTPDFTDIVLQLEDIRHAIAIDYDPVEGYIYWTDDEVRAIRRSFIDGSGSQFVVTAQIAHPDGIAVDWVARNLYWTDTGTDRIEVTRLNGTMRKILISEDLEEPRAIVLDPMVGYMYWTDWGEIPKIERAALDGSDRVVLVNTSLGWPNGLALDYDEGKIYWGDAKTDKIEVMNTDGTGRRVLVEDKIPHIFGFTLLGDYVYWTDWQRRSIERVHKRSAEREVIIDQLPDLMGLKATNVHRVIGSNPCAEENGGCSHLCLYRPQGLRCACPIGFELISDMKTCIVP
# T2: LRP6E3E4_O75581_631-1246 (Homo sapiens (Human), UniProt O75581 631-1246, biotinylated in the BLI/SPR assays (C-terminal biotin acceptor peptide))
# T2 construct: The entry holds residues 631-1246 of UniProt O75581 followed by a biotin acceptor peptide and eight His
# T2 sequence: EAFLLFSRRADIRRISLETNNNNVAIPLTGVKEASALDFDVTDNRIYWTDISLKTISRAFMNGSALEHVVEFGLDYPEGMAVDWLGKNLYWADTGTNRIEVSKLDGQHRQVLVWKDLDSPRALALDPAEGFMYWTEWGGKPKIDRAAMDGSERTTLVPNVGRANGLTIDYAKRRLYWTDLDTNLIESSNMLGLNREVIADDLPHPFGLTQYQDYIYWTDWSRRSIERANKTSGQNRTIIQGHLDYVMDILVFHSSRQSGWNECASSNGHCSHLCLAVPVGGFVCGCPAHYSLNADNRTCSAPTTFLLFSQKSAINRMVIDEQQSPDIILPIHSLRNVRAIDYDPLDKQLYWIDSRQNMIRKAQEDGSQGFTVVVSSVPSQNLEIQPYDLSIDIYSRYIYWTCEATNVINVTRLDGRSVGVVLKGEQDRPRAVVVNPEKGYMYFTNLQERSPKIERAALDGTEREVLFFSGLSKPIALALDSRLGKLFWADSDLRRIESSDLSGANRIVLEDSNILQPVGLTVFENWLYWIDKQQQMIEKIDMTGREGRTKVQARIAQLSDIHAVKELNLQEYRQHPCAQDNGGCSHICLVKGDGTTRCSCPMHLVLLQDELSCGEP
# What was measured:
# [1] = biological target: T1, LRP6e1e2; experiment: Octet BLI or BIAcore SPR
# [2] = biological target: T1, LRP6e1e2; experiment: Octet BLI, affinity class
# Procedure: (§1) Binding kinetics of antibody fragments to LRP5 extracellular domain (LRP5 ECD) and/or LRP6 extracellular domain (LRP6 ECD) protein targets was determined by bio-layer interferometry (BLI) using Octet Red 96 (PALL ForteBio, Fremont, Calif.) instruments at 30° C., 1000 rpm with streptavidin (SA) biosensors. C-terminal biotinylated LRP ECD recombinant protein was diluted to 20 nM in the running buffer (PBS, 0.05% Tween-20, 0.5% BSA, pH 7.2) and captured to the SA biosensor until coupling length reached 0.2 nm. Following capture of the LRP5 or LRP6, the SA biosensor with captured biotinylated-LRP5 or biotinylated LRP6 was dipped into wells containing the relevant antibody fragment at […] (0, 1.37, 4.12, 12.4, 37, 111.1, 333.3, 1000 nM) in running buffer, plus a well with only running buffer as a reference channel. KD was determined by global fitting, 1:1 binding model according to manufacturer recommended settings.
# [3] = biological target: T2, LRP6E3E4_O75581_631-1246; experiment: Octet BLI
# Procedure: as §1
# [4] = biological target: T2, LRP6E3E4_O75581_631-1246; experiment: Octet BLI, affinity class
# Procedure: as §1
# [5] = biological target: T2, LRP6E3E4_O75581_631-1246; experiment: Octet BLI or BIAcore SPR
# [6] = biological target: T1, LRP6e1e2; experiment: Octet BLI
# Procedure: as §1
Kd [1] [nM],Kd [2] [nM],binding result [3],Kd [4] [nM],Kd [5] [nM],binding result [6],Binder
< 500,< 500,no binding,–,–,–,009S-D03 (VHH) VHH: DVQLVESGGGLVQPGGSLRLSCAAPGSIFSDGAMGWYRQAPGKQRELVAVISGGRTGYADFVKGRFTISRDNGKNTVNLQMNRLEPEDTAVYFCNTYPFPIYKKGYPFWGQGTQVTVSS
< 500,–,–,–,–,–,001S-F11 (VHH) VHH: QVQLVESGGGLVQAGGSLRLSCAASGRTFSSYAMSWFRQAPGKEREFVAVIGRSGGIKYYADSVKGRFTISRDNTINTVYLQMNNLTPEDTAIYYCATRRPFNSYNTEQSYDSWGRGTLVTVSS
< 500,< 500,no binding,–,–,–,009S-F03 (VHH) VHH: DVQLVESGGGLVQAGGSLRLSCAASGRTFSSYAMSWFRQAPGKEREFVAVIGRSGGIKYYADSVKGRFTISRDNTINTVYLQMNNLTPEDTAIYYCATRRPFNSYNTEQSYDSWGRGTLVTVSS
< 500,< 500,no binding,–,–,–,009S-G02 (VHH) VHH: AVQLVESGGGLVQAGGSLRLSCGVSGSIFSIYAMGWYRQAPGKERELVAVITSGGKTVYADSVKGRFTITEDAAKNTVYLQMNSLKAEDTAVYYCYADSRSSWYDEYLEHWGRGTLVTVSS
< 500,< 500,–,< 500,–,–,009S-H03 (VHH) VHH: DVQLVESGGGLVQAGESLRLSCAASGSIFSINTMGWYRQAPGKERELVAVITSGGKTVYADSVKGRFTITEDAAKNTVYLQMNSLKAEDTAVYYCYADSRSSWYDEYLEHWGQGTLVTVSS
–,–,–,< 500,< 500,no binding,013S-H04 (HC SEQ ID NO 16) (VHH) VHH: AVQLVDSGGGLVQAGGSLRLSCAVSGRTFSMYDMGWFRQAPGKEREFVASIRWSSGNTWYADSMKGRFTISRDNAKNTVYLQMNSLKPEDTAVYYCYANIYYTRRAPEEYWGQGTLVTVSS
–,–,–,< 500,< 500,no binding,013S-D05 (HC SEQ ID NO 18) (VHH) VHH: QVKLEESGGGLVQAGGSLRLSCAASGRIFSIYDMGWFRQAPGKEREFVSGIRWSGGTSYADSVKGRFTISKDNAKNTIYLQMNNLKAEDTAVYYCGSRGYWGQGTLVTVSS
–,–,–,< 500,< 500,no binding,013S-C05 (HC SEQ ID NO 17) (VHH) VHH: EVQLVESGGGLVQPGGSLRLSCAVSRNIFPIDDMSWYRQAPGKQRELVATVTSGGRINYADSVKGRFTISRDGARRTIDLQMNNLKPEDTAVYYCNVDRTLYGKYKEYWGQGTLVTVSS
–,–,–,< 500,< 500,no binding,009S-G04 (VHH) VHH: EVQLVESGGGLVQAGGSLRVSCAASGGTFSRYHMGWFRQAPGKEREFVSAITWSGGRTYYADFVKGRFTISRDDARNTVYLQMSSLKPEDTAVYYCALTWAPTPTNRRSDYAYWGQGTQVTVSS
< 500,< 500,–,> 500,–,–,009S-A03 (VHH) VHH: QVQLVESGGGLVQAGDSLRLSCVVSGRTFSVYGVGWFRQAPGKEREVVAAVSASGGYTWYADSVKGRFTISRDNAKSTAFLQMNSLQPEDTAVYYCKAAPRWGGATAYWGQGTQVTVSS
< 500,< 500,no binding,–,–,–,009S-A04 (VHH) VHH: AVQLVESGGGLVQAGGSLRLSCAASGRTLSAYDMGWFRQAPGKERELVGGIRWSGGTTLYPDSVKGRFTISRDNAKNTVYLQMNSLKPEDSAVYYCYARTVIGGFGAFRAHWGQGTQVTVSS
–,–,–,< 500,< 500,no binding,013S-G04 (HC SEQ ID NO 15) (VHH) VHH: AVQLVESGGGLVQAGGSLRLACAGSGRIFAIYDIAWYRQAPGNQRELVATIRPVVSETTYADAVKGRFTISRSNAMKTVYLQMNSLKSEDTAIYYCNAKRPWGTRDEYWGQGTLVTVSS
–,–,–,< 500,< 500,no binding,009S-H04 (VHH) VHH: EVQLVESGGGLVQAGGSLRLACAGSGRIFAIYDMAWYRQAPGNQRELVATIRPVVSETTYADAVKGRFTISRSNAMKTVYLQMNSLKSEDTAIYYCNAKRPWGTRDEYWGQGTLVTVSS
–,–,–,< 500,< 500,no binding,009S-B04 (VHH) VHH: DVQLVESGGGLVQPGGSLRLSCAASGSIFMINTMAWYRQAPGNQRELVATIRPVVSETTYADAVKGRFTISRDNAKNTVYLQMNSLKSEDTAIYYCNAKRPWGTRDEYWGQGTLVTVSS
